Measured values reported in patent CN113667018A.

Biological target: N-Ras蛋白 (UniProt P01111)
Assay: indirect ELISA; N-Ras coated at 5 ug/ml, fusion protein diluted 1:100 to 1:3200, anti-His-tag antibody then HRP goat anti-mouse IgG, OD450
Conditions: scale: dilution factor

Chain of UniProt P01111 (P01111 whole entry, the tested form may be a part): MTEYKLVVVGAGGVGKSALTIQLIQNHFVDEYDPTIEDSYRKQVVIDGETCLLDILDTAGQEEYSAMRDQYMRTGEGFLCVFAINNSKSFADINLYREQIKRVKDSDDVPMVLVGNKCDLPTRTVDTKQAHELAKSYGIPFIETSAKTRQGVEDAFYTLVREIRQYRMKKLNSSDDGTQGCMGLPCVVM

B1: BR2-抗p21Ras单链抗体融合蛋白 (scFv, V domains shown, not shown: small tags and cut ends)
VH: QVKLQESGEGLVKPGGSLKLSCAASGFTFSDYYMYWVRQTPEKRLEWVAIISDGGSYTYYPDSVKGRFTISRDNTKKNLYLQMSSLRSEDTAMYYCARDPHYSGSSRLFVNWGQGTTVTVSS
Work on B1 yielded a 结合效价 (ELISA titer) of 800.
